Measured values from patent US20250122285A1 (ANWITA BIOSCIENCES, published 2025).

Target: T1, CD122/CD132 heterodimer (human, UniProt P14784 27-239; P31785 23-262)
T1 construct: Bought from ACROBIO as 'AVT-TAG CD122/CD132 heterodimer'; also called AVT-TAG CD122/CD132 heterodimer; IL-2Rβ/γ complex
T1 sequence 1: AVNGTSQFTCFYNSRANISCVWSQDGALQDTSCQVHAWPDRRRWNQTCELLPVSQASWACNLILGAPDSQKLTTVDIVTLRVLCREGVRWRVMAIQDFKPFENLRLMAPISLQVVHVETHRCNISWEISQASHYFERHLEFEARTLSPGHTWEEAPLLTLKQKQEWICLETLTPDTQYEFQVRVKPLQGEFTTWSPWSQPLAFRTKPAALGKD
T1 sequence 2: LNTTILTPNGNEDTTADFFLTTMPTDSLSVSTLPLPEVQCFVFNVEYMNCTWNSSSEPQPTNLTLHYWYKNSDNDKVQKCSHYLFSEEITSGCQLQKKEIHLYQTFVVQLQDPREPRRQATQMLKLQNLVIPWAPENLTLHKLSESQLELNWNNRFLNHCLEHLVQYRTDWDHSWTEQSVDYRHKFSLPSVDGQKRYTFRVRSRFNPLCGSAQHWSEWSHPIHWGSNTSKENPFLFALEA
Assay: BLI (OCTET RED96), receptor on biosensor, IL-2 in solution at 10-2,000 nM, 24 C
Experimental: OCTET® RED96 was used to characterize the interactions of wild-type hL-2 and hhL-2 muteins with CD25, CD122, or CD122/CD132 heterodimer. AVT-TAG CD122/CD132 heterodimer was purchased from ACROBIO. The protein samples were diluted in the OCTET® kinetic buffer. […] The biosensor was then dipped into a solution containing a wild-type hL-2 and IL-2 muteins at 10 to 2,000 nM at 24° C. The association and dissociation sensorgraph was fitted by global or local fitting using the OCTET® Data Analysis HT software.

B1: IL-2-IL-15 Chimera 65 (T3A, I92A, C125S, Q126E) (ligand)
chain: APASSSTKKTQLQLEHLLLDLQMILNGIQSMEIDATTFKFYMPKKATELKHLQCLEEELKPLEEVLNLAQSKNFHLRPRDLISNINVAVLELKGSETTFMCEYADETATIVEFLNRWITFSESIISTLT
Kd: 242 nM
